The test has as its target T1, KaiC (FLAG-seKaiC-1-519) (Synechococcus elongatus, UniProt Q79PF4 1-519, initially hyperphosphorylated due to its preparation and storage at low temperatures (residues not given)).
T1 construct: KaiC of Synechococcus elongatus, residues 1-519; In the model KaiC is assigned as hexamers; not measured here
T1 sequence (looked up): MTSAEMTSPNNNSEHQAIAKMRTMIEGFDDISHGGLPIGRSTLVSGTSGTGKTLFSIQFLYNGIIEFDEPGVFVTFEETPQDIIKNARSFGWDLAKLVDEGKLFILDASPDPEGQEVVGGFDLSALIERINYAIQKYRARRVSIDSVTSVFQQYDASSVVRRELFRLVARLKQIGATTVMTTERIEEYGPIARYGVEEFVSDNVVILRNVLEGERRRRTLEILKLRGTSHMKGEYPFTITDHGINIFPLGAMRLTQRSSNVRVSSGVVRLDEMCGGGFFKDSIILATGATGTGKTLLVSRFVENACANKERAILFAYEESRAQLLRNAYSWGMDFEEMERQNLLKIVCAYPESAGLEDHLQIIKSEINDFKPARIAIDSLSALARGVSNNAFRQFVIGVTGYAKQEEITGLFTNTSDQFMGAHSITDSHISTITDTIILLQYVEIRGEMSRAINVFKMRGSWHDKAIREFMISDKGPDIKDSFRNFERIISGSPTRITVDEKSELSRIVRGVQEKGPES
Kind of test: other fluorescence titration; fluorescence quenching of KaiB-6IAF: 25 µL of a 50:50 mixture of KaiB:KaiB-6IAF at 7 µM added to 25 µL of serially diluted KaiC in a black clear-bottom 96-well plate; mean intensity followed for 22 h; without KaiA. The conditions noted are these: both partners purified.

B1: KaiB-6IAF (seKaiB-1-102-K25C-FLAG labelled with 6-iodoacetamidofluorescein) (natural protein, Synechococcus elongatus, UniProt Q79PF5 1-102, looked up)
chain: MSPRKTYILKLYVAGNTPNSVRALCTLKNILEVEFQGVYALKVIDVLKNPQLAEEDKILATPTLAKVLPLPVRRIIGDLSDREKVLIGLDLLYGELQDSDDF
modifications: 6-(iodoacetamido)fluorescein (6IAF), thiol-reactive fluorophore, on KaiB-K25C
notes: KaiB of Synechococcus elongatus, residues 1-102, with K25C; In the model KaiB is assigned as tetramers; not measured here; also called fluorescent KaiB; fluorescently labeled KaiB
Regarding B1, the binding result is listed as “binds”.

B2: KaiB (seKaiB-1-102-FLAG) (natural protein, Synechococcus elongatus, UniProt Q79PF5 1-102, looked up)
chain: MSPRKTYILKLYVAGNTPNSVRALKTLKNILEVEFQGVYALKVIDVLKNPQLAEEDKILATPTLAKVLPLPVRRIIGDLSDREKVLIGLDLLYGELQDSDDF
notes: KaiB of Synechococcus elongatus, residues 1-102; Present as half of the 50:50 KaiB:KaiB-6IAF mixture; gives no signal of its own; also called unlabelled KaiB
On to B2, for which the binding result was “binds”.

The record behind these values is publication PMC12280161, “Reconstitution of circadian clock in synthetic cells reveals principles of timekeeping” (Nature Communications, 2025).
